This series deals with Escherichia coli TOP10. Put plainly: shrunken log2 fold change of peptide-encoding DNA abundance (4.5 h post-induction vs induction); higher = less antimicrobial activity (less host growth inhibition). The conditions noted are these: time post-induction: 4.5 h; library: site-saturation at positions 5, 18, 19, 20.
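Also: peptides expressed intracellularly from a pBAD plasmid library in pooled LB shake-flask culture, induced with 0.3% L-arabinose, DNA abundance read by NGS, three biological replicates, DESeq2 with apeglm shrinkage.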

For the sequence RRIRHRPPRLPRPRPRPQHDPRP, the “shrunken log2 fold change” value was -0.281.

For RRIRNRPPRLPRPRPRPYTNPRP, the “shrunken log2 fold change” value was -0.424.

For the sequence RRIRQRPPRLPRPRPRPFNIPRP, the “shrunken log2 fold change” value stood at 0.0348.

On to RRIRCRPPRLPRPRPRPFLVPRP, for which the “shrunken log2 fold change” value was -0.511.

Turning to RRIRPRPPRLPRPRPRPQMMPRP, the “shrunken log2 fold change” value was -0.41.

In the case of RRIRERPPRLPRPRPRPSYLPRP, the “shrunken log2 fold change” value was -1.2.

As to RRIRWRPPRLPRPRPRPHWEPRP, the “shrunken log2 fold change” value was 0.323.

As to RRIRARPPRLPRPRPRPVFWPRP, the “shrunken log2 fold change” value stood at 0.699.

As to RRIRERPPRLPRPRPRPRQMPRP, the “shrunken log2 fold change” value is -0.000582.

For the sequence RRIRNRPPRLPRPRPRPVDRPRP, the “shrunken log2 fold change” value came out at 0.148.

Regarding RRIRGRPPRLPRPRPRPYLVPRP, the “shrunken log2 fold change” value is 0.15.

With RRIRNRPPRLPRPRPRPELIPRP, the “shrunken log2 fold change” value is -0.0327.

Regarding RRIRKRPPRLPRPRPRPDIKPRP, the “shrunken log2 fold change” value came to 0.137.

For RRIRWRPPRLPRPRPRPIAKPRP, the “shrunken log2 fold change” value is -0.283.

As to RRIRMRPPRLPRPRPRPYGMPRP, the “shrunken log2 fold change” value came to 0.162.

Regarding RRIRHRPPRLPRPRPRPMVSPRP, the “shrunken log2 fold change” value was -0.00841.

Take RRIRSRPPRLPRPRPRPYHHPRP: the “shrunken log2 fold change” value is -0.511.

Turning to RRIRERPPRLPRPRPRPWCPPRP, the “shrunken log2 fold change” value is -0.758.

Regarding RRIRCRPPRLPRPRPRPAMGPRP, the “shrunken log2 fold change” value is -0.0638.

In the case of RRIRLRPPRLPRPRPRPIAAPRP, the “shrunken log2 fold change” value stood at 0.272.

On to RRIRPRPPRLPRPRPRPHMEPRP, for which the “shrunken log2 fold change” value was -0.0417.

Regarding RRIRDRPPRLPRPRPRPPMKPRP, the “shrunken log2 fold change” value was determined as 0.131.

For RRIRTRPPRLPRPRPRPCGDPRP, the “shrunken log2 fold change” value amounted to 0.176.

As to RRIRDRPPRLPRPRPRPIWVPRP, the “shrunken log2 fold change” value was -0.0618.

With RRIRWRPPRLPRPRPRPEYWPRP, the “shrunken log2 fold change” value came out at 0.388.

Turning to RRIRVRPPRLPRPRPRPFHQPRP, the “shrunken log2 fold change” value is 0.032.

With RRIRNRPPRLPRPRPRPVWRPRP, the “shrunken log2 fold change” value amounted to 0.636.

Regarding RRIRRRPPRLPRPRPRPDHKPRP, the “shrunken log2 fold change” value is 0.027.

In the case of RRIRCRPPRLPRPRPRPITQPRP, the “shrunken log2 fold change” value is -0.0791.

On to RRIRYRPPRLPRPRPRPRYVPRP, for which the “shrunken log2 fold change” value was -0.0777.

Turning to RRIRFRPPRLPRPRPRPLDEPRP, the “shrunken log2 fold change” value was -0.132.

Consider RRIRCRPPRLPRPRPRPIRHPRP, for which the “shrunken log2 fold change” value was -0.146.

For the sequence RRIRIRPPRLPRPRPRPCNSPRP, the “shrunken log2 fold change” value is -0.271.

RRIRQRPPRLPRPRPRPTLWPRP: the “shrunken log2 fold change” value came to 0.0794.

Regarding RRIRCRPPRLPRPRPRPKKQPRP, the “shrunken log2 fold change” value worked out at 0.155.

With RRIRQRPPRLPRPRPRPPPTPRP, the “shrunken log2 fold change” value is 0.913.

As for RRIRLRPPRLPRPRPRPSKSPRP, the “shrunken log2 fold change” value was -0.0582.

Regarding RRIRMRPPRLPRPRPRPIMNPRP, the “shrunken log2 fold change” value amounted to 0.284.

Turning to RRIRHRPPRLPRPRPRPPKYPRP, the “shrunken log2 fold change” value is -0.349.

Consider RRIRWRPPRLPRPRPRPLRAPRP, for which the “shrunken log2 fold change” value is 1.19.

For RRIRQRPPRLPRPRPRPFDMPRP, the “shrunken log2 fold change” value was -0.123.

For RRIRHRPPRLPRPRPRPVEWPRP, the “shrunken log2 fold change” value is 0.123.

On to RRIRWRPPRLPRPRPRPEFMPRP, for which the “shrunken log2 fold change” value was 0.635.

Regarding RRIRARPPRLPRPRPRPGHAPRP, the “shrunken log2 fold change” value was determined as 0.16.

On to RRIRCRPPRLPRPRPRPEPTPRP, for which the “shrunken log2 fold change” value worked out at 0.628.

For RRIRIRPPRLPRPRPRPVLNPRP, the “shrunken log2 fold change” value is -0.492.

For RRIRFRPPRLPRPRPRPNANPRP, the “shrunken log2 fold change” value was -0.0822.

On to RRIRKRPPRLPRPRPRPLYGPRP, for which the “shrunken log2 fold change” value was -0.289.

For RRIRIRPPRLPRPRPRPKESPRP, the “shrunken log2 fold change” value is -0.258.

Turning to RRIRDRPPRLPRPRPRPWNGPRP, the “shrunken log2 fold change” value was -0.176.

As to RRIRTRPPRLPRPRPRPNYKPRP, the “shrunken log2 fold change” value is -0.823.

In the case of RRIRHRPPRLPRPRPRPAQCPRP, the “shrunken log2 fold change” value amounted to 0.101.

Consider RRIRPRPPRLPRPRPRPWEWPRP, for which the “shrunken log2 fold change” value was determined as 0.0238.

Take RRIRFRPPRLPRPRPRPIFTPRP: the “shrunken log2 fold change” value is -0.128.

As to RRIRDRPPRLPRPRPRPNSEPRP, the “shrunken log2 fold change” value came out at 0.261.

For the sequence RRIRMRPPRLPRPRPRPSWKPRP, the “shrunken log2 fold change” value was -0.181.

For RRIRLRPPRLPRPRPRPMWQPRP, the “shrunken log2 fold change” value came out at 0.0197.

On to RRIRHRPPRLPRPRPRPQYQPRP, for which the “shrunken log2 fold change” value is -0.496.

As to RRIRSRPPRLPRPRPRPVRVPRP, the “shrunken log2 fold change” value was found to be 0.743.

As for RRIRVRPPRLPRPRPRPMPQPRP, the “shrunken log2 fold change” value turned out to be 0.311.

RRIRARPPRLPRPRPRPTIQPRP: the “shrunken log2 fold change” value came to 0.0396.

RRIRPRPPRLPRPRPRPRMDPRP: the “shrunken log2 fold change” value is 0.176.

For RRIRKRPPRLPRPRPRPATLPRP, the “shrunken log2 fold change” value stood at 0.312.

Consider RRIRARPPRLPRPRPRPSYWPRP, for which the “shrunken log2 fold change” value was -0.184.

On to RRIRVRPPRLPRPRPRPCEEPRP, for which the “shrunken log2 fold change” value is 0.24.

Turning to RRIRGRPPRLPRPRPRPMFHPRP, the “shrunken log2 fold change” value was 0.074.

For RRIRYRPPRLPRPRPRPTPSPRP, the “shrunken log2 fold change” value stood at 0.421.

On to RRIRTRPPRLPRPRPRPWAGPRP, for which the “shrunken log2 fold change” value is -0.0234.

As for RRIRERPPRLPRPRPRPDGDPRP, the “shrunken log2 fold change” value is 0.03.

On to RRIRDRPPRLPRPRPRPSQQPRP, for which the “shrunken log2 fold change” value was -0.123.

Turning to RRIRFRPPRLPRPRPRPQRFPRP, the “shrunken log2 fold change” value stood at 0.0542.

As to RRIRFRPPRLPRPRPRPARSPRP, the “shrunken log2 fold change” value is 0.336.

As for RRIRYRPPRLPRPRPRPQCDPRP, the “shrunken log2 fold change” value is -0.529.

Regarding RRIRVRPPRLPRPRPRPWEQPRP, the “shrunken log2 fold change” value is -0.355.

For the sequence RRIRGRPPRLPRPRPRPRGAPRP, the “shrunken log2 fold change” value was 1.66.

Turning to RRIRSRPPRLPRPRPRPVAYPRP, the “shrunken log2 fold change” value is -0.0936.

Take RRIRDRPPRLPRPRPRPEWYPRP: the “shrunken log2 fold change” value was found to be 0.0233.

With RRIRLRPPRLPRPRPRPFATPRP, the “shrunken log2 fold change” value was -0.0878.

For RRIRYRPPRLPRPRPRPWNIPRP, the “shrunken log2 fold change” value was -0.01.

As for RRIRERPPRLPRPRPRPDLGPRP, the “shrunken log2 fold change” value was -0.0853.

As for RRIRYRPPRLPRPRPRPDVVPRP, the “shrunken log2 fold change” value is 0.0135.

In the case of RRIRHRPPRLPRPRPRPGHFPRP, the “shrunken log2 fold change” value stood at 0.0387.

As for RRIRERPPRLPRPRPRPYQNPRP, the “shrunken log2 fold change” value was -0.0789.

With RRIRSRPPRLPRPRPRPTRIPRP, the “shrunken log2 fold change” value was -0.0163.

Consider RRIRYRPPRLPRPRPRPGQQPRP, for which the “shrunken log2 fold change” value is 0.0541.

As to RRIRTRPPRLPRPRPRPPNGPRP, the “shrunken log2 fold change” value is 0.104.

On to RRIRMRPPRLPRPRPRPNAWPRP, for which the “shrunken log2 fold change” value turned out to be 0.774.

Take RRIRYRPPRLPRPRPRPVPCPRP: the “shrunken log2 fold change” value is -0.226.

For the sequence RRIRFRPPRLPRPRPRPCLQPRP, the “shrunken log2 fold change” value worked out at 0.0975.

Turning to RRIRCRPPRLPRPRPRPSVYPRP, the “shrunken log2 fold change” value is -0.697.

RRIRPRPPRLPRPRPRPPCHPRP: the “shrunken log2 fold change” value came out at 0.0684.

With RRIRMRPPRLPRPRPRPGWLPRP, the “shrunken log2 fold change” value turned out to be 0.533.

For RRIRIRPPRLPRPRPRPWDVPRP, the “shrunken log2 fold change” value is -0.468.

Take RRIRQRPPRLPRPRPRPIWQPRP: the “shrunken log2 fold change” value is -0.049.

Take RRIRPRPPRLPRPRPRPEQDPRP: the “shrunken log2 fold change” value worked out at 0.0894.

RRIRCRPPRLPRPRPRPIAAPRP: the “shrunken log2 fold change” value was determined as 0.549.

With RRIRNRPPRLPRPRPRPCMCPRP, the “shrunken log2 fold change” value stood at 0.0188.

On to RRIRYRPPRLPRPRPRPHDWPRP, for which the “shrunken log2 fold change” value is -0.0744.

With RRIRKRPPRLPRPRPRPKESPRP, the “shrunken log2 fold change” value is -0.0162.

On to RRIRQRPPRLPRPRPRPWKMPRP, for which the “shrunken log2 fold change” value was -0.112.

Consider RRIRVRPPRLPRPRPRPGMNPRP, for which the “shrunken log2 fold change” value is -0.145.

Take RRIRGRPPRLPRPRPRPMSPPRP: the “shrunken log2 fold change” value was 0.00263.

For the sequence RRIRSRPPRLPRPRPRPSISPRP, the “shrunken log2 fold change” value was -0.584.

For RRIRERPPRLPRPRPRPLWKPRP, the “shrunken log2 fold change” value is -0.424.

In the case of RRIRGRPPRLPRPRPRPKHYPRP, the “shrunken log2 fold change” value came to 0.0538.

Take RRIRLRPPRLPRPRPRPSVDPRP: the “shrunken log2 fold change” value was -0.462.

For the sequence RRIRPRPPRLPRPRPRPLVGPRP, the “shrunken log2 fold change” value is 0.408.

For the sequence RRIRDRPPRLPRPRPRPKCFPRP, the “shrunken log2 fold change” value was 0.0766.

Take RRIRIRPPRLPRPRPRPCQGPRP: the “shrunken log2 fold change” value was -0.0156.

For RRIRWRPPRLPRPRPRPGIEPRP, the “shrunken log2 fold change” value turned out to be 0.281.

As for RRIRCRPPRLPRPRPRPRGKPRP, the “shrunken log2 fold change” value was determined as 0.777.

As to RRIRIRPPRLPRPRPRPQHWPRP, the “shrunken log2 fold change” value stood at 0.112.

On to RRIRIRPPRLPRPRPRPTCKPRP, for which the “shrunken log2 fold change” value was -0.466.

Take RRIRNRPPRLPRPRPRPHLEPRP: the “shrunken log2 fold change” value was found to be 0.0549.

Turning to RRIRARPPRLPRPRPRPPIMPRP, the “shrunken log2 fold change” value is 0.0549.

On to RRIRPRPPRLPRPRPRPTTPPRP, for which the “shrunken log2 fold change” value amounted to 0.322.

RRIRPRPPRLPRPRPRPQKVPRP: the “shrunken log2 fold change” value worked out at 0.0449.

In the case of RRIRHRPPRLPRPRPRPCLIPRP, the “shrunken log2 fold change” value is -0.11.

Take RRIRHRPPRLPRPRPRPYNYPRP: the “shrunken log2 fold change” value is -0.00747.

With RRIRVRPPRLPRPRPRPEIYPRP, the “shrunken log2 fold change” value was -0.348.

Consider RRIRKRPPRLPRPRPRPTHKPRP, for which the “shrunken log2 fold change” value worked out at 0.658.

With RRIRTRPPRLPRPRPRPQLWPRP, the “shrunken log2 fold change” value was -0.13.

In the case of RRIRNRPPRLPRPRPRPISQPRP, the “shrunken log2 fold change” value was -0.261.

With RRIRHRPPRLPRPRPRPNDLPRP, the “shrunken log2 fold change” value amounted to 0.0529.

As for RRIRWRPPRLPRPRPRPHMRPRP, the “shrunken log2 fold change” value is 0.494.

Source of the values: the supplement of paper PMC9112550, “Optimization of the antimicrobial peptide Bac7 by deep mutational scanning” (BMC Biology, 2022).
